Tests used:
[1] = biological target: T1, ALPP expressed on the surface of CHO cells (CHO-ALPP) (Homo sapiens, UniProt P05187); assay: Cell-surface binding by flow cytometry, CHO-ALPP; conditions: VHH proteins
T1 construct: expressed in transfected cells
Method: (§1) C-terminal His tagged VHH proteins were assessed for ALPP, ALPPL2, ALPI and ALPL cell-surface binding by flow cytometry. Binders encompassing different epitope bins were screened on CHO cells stably expressing ALPP, ALPPL2, ALPI or ALPL. High levels of cell-surface proteins expression were confirmed for each of the cell-lines by flow cytometry.
(§2) Cell surface binding of test agents to hALPP isoforms was characterized in four CHO-ALPP isoform stably transfected cell lines (CHO-ALPP, CHO-ALPPL2, CHO-ALPI and CHO-ALPL) and the resulting KDapp values determined. Adherent cells were detached from tissue culture flasks by incubating with 0.1% EDTA/PBS solution at 37° C. for ~10 minutes or until cells detached easily. […] Binding of VHH (His6 tagged) agents was determined by adding 100 μl of anti-x6His tag Ab (Abcam) per cell pellet sample as appropriate and incubating on ice for 30 mins. […]
(§3) VHH-hFc proteins were assessed for human ALPP, ALPPL2, ALPI and ALPL cell-surface binding by flow cytometry. […]
(§4) Cell surface binding of test agents to hALPP isoforms was characterized in four CHO-ALPP isoform transfectant cell lines (CHO-ALPP, CHO-ALPPL2, CHO-ALPI and CHO-ALPL) and the resulting KDapp values determined. […] Binding of VHH-hFc agents was determined by adding 100 μl of Fitc-anti-human Ab (ThermoFisher) and incubating for 30 mins on ice in the dark. […]

[2] = biological target: T2, ALPPL2 expressed on the surface of CHO cells (CHO-ALPPL2) (Homo sapiens, UniProt P10696); assay: Cell-surface binding by flow cytometry, CHO-ALPPL2; conditions: VHH His proteins
T2 construct: expressed in transfected cells
Method: as §1, §2, §3, §4

T2 sequence (P10696 20-503 limits assumed): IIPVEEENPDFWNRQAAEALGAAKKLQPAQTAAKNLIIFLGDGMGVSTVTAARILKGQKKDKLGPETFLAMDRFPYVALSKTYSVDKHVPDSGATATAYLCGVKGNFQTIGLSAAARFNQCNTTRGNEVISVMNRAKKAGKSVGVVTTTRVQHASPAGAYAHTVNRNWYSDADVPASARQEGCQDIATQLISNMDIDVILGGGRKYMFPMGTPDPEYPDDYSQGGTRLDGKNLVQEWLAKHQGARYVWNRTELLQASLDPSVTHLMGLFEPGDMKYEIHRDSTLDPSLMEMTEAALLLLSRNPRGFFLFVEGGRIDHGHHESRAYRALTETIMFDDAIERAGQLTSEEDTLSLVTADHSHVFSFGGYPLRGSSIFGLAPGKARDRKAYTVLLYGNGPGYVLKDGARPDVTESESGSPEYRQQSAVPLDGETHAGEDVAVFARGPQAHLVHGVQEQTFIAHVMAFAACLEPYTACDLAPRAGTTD
T1 sequence (P05187 23-506 limits assumed): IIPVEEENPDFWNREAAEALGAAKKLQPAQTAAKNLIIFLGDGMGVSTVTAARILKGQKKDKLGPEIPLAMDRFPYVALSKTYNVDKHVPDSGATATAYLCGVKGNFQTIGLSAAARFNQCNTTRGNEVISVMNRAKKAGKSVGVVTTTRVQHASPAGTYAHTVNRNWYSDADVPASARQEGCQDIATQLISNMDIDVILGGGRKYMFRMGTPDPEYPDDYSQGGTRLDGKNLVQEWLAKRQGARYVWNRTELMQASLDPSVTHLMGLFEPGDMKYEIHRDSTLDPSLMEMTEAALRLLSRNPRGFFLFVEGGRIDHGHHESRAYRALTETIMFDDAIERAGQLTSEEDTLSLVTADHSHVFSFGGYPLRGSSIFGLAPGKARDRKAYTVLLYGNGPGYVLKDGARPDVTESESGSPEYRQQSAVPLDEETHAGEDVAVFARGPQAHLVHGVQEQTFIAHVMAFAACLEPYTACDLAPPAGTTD

- binding preference ALPP versus ALPPL2 on CHO cells [1]: preferential binding to ALPP over ALPPL2
- KDapp CHO-ALPPL2 [2]: Binding
B1: D10: ALPP targeting VHH domain, SEQ ID NO: 28 (protein)
VHH: QVQLVESGGGLVQPGGSLRLSCAASGSIFSVNTMGWYRQAPGKQRDLVAVATSGGTIHYADSVKGRFTISRDNAKNTVYLQMNSLKPEDTAVYYCNLVVPYGMIAGDHDYWGQGTKVTVSS

From US20260216242A1, “ALPP-SPECIFIC VARIANT ANTIGEN BINDING MOLECULES” (ALMAC DISCOVERY LIMITED, priority 2022, published 2026)
